Source: patent CN116514962A (THE AFFILIATED HOSPITAL OF GUANGZHOU MEDICAL UNIV GUANGZHOU …, dated 2023)

How the values were obtained:
人冠状病毒OC43 N蛋白 = molecular target: T1, 人冠状病毒OC43 N蛋白 (人冠状病毒OC43 (HCoV-OC43), UniProt P33469 1-448); assay: ELISA
T1 sequence: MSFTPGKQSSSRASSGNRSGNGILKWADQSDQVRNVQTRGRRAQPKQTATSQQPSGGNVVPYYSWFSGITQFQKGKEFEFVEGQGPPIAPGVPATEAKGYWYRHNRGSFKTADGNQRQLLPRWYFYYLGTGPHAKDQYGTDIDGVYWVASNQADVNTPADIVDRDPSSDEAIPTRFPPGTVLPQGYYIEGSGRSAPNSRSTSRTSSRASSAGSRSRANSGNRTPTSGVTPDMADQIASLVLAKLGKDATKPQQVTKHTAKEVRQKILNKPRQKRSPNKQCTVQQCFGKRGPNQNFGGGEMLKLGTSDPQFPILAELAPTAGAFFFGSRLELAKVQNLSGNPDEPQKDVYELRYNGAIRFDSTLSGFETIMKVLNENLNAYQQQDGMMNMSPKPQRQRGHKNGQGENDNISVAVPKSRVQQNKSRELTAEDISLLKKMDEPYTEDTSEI

MERS病毒N蛋白 = MERS病毒N蛋白 (MERS病毒 (MERS-CoV), UniProt K9N4V7 1-411); assay: ELISA
SARS病毒N蛋白 = SARS病毒N蛋白 (SARS病毒 (SARS-CoV), UniProt P59595 1-422); assay: ELISA
人冠状病毒HKU1 N蛋白 = molecular target: T2, 人冠状病毒HKU1 N蛋白 (人冠状病毒HKU1 (HCoV-HKU1), UniProt Q5MQC6 1-441); assay: ELISA
T2 sequence: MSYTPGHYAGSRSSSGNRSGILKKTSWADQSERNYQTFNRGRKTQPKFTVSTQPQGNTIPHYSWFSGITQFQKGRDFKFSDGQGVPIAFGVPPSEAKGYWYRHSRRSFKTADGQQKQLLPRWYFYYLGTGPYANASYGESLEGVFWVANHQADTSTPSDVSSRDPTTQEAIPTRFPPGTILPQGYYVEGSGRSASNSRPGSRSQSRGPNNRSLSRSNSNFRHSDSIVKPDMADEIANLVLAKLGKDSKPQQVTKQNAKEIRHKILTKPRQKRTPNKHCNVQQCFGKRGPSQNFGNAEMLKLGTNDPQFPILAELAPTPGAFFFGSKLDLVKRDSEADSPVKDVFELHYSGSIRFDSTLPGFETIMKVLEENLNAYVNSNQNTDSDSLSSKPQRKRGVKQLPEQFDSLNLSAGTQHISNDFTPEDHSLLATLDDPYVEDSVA

新型冠状病毒(SARS-CoV-2)N蛋白 = 新型冠状病毒(SARS-CoV-2)N蛋白 (SARS-CoV-2, UniProt P0DTC9 1-419)

B1: N5抗体 (N蛋白特异性单克隆抗体N5) (antibody, V domains shown)
VH: QVQLVQSGAEVKKPGSSVKVSCKASGGTFSSYAIGWVRQAPGQGLEWMGAIIPIFGTTIFAQKFQGRVTITADESTTTAYMELSSLRSDDTAVYYCARGGGGVERGVILTRWFDPWGQGTLVTVSS
VL: QSVLTQPPSVSAAPGQKVTLSCSGSSSNIGNNHVSWYQQLPGTAPKLLIYDNNKRPSGIPDRFSGSKSGTSATLGITGLQTGDEADYYCGTWDNSLSAGVFGGGTKLTVV
binding result (人冠状病毒OC43 N蛋白): no binding
binding result (MERS病毒N蛋白): no binding
binding result (SARS病毒N蛋白): binds
binding result (人冠状病毒HKU1 N蛋白): no binding
Kd (新型冠状病毒(SARS-CoV-2)N蛋白): < 0.001 nM

B2: N31抗体 (N蛋白特异性单克隆抗体N31) (antibody, V domains shown)
VH: QMQLVQSGAEVKKPGSSVKVSCKASGGTFSSYGISWVRQAPGQGLEWMGGIIPILGTANYAQRFQGRIALTADESTSTAYMEVSSLRSEDTAVYYCARGMWSNPPGYCCSYMDVWGKGTTVTVSS
VL: EIVLTQSPATLSVSPGERVTLACRASQSLRSKLAWYQQKPGQAPRLLIYDASTRATGFPARFSGSGSGTEFTLTISSLQSEDFAVYYCQQYSNWPRTFGQGTKLEIK
binding result (人冠状病毒OC43 N蛋白): no binding
binding result (MERS病毒N蛋白): no binding
binding result (SARS病毒N蛋白): binds
binding result (人冠状病毒HKU1 N蛋白): no binding
Kd (新型冠状病毒(SARS-CoV-2)N蛋白): < 0.001 nM

B3: N3抗体 (N蛋白特异性单克隆抗体N3) (antibody, V domains shown)
VH: QMQLVQSGAEVKRPGSSVKVSCKASGGTFSVYAISWVRQAPGQGLEWMGGIIPIFGTANYAQKFQGRVTLTADESTSTAYMELSSLSSEDTAVYYCARGGYCSGANCPKWGEWSHSYNYMDVWGKGTTVTVSS
VL: not shown
binding result (人冠状病毒OC43 N蛋白): no binding
binding result (MERS病毒N蛋白): no binding
binding result (SARS病毒N蛋白): binds
binding result (人冠状病毒HKU1 N蛋白): no binding

B4: N83抗体 (N蛋白特异性单克隆抗体N83) (antibody, V domains shown)
VH: QVQLQESGPRLVKSSETLSLTCTVSGGSISSGSYYWNWIRQPAGKGLEWIGRVYISGVTSYNPSLKSRVTISLDISKNQFSLQLTSVTAADSAVYYCARGGMAVGAPLYYYFYGMDVWGQGTTVTVSS
VL: DVVMTQSPLSLPVTPGEPASISCRSSQSLLHSNGYNYVDWYLQKPGQSPQLMIYLGSNRASGVPDRFSGSGSGTHFTLKISRVEAEDVGVYYCMQALQTLSITFGQGTRLEIK
binding result (人冠状病毒OC43 N蛋白): no binding
binding result (MERS病毒N蛋白): no binding
binding result (SARS病毒N蛋白): binds
binding result (人冠状病毒HKU1 N蛋白): no binding
Kd (新型冠状病毒(SARS-CoV-2)N蛋白): 1.76 nM

B5: 3B7抗体 (N蛋白特异性单克隆抗体3B7) (antibody, V domains shown)
VH: QMQLVQSGAEVKKPGASVRVSCKVSGYSLTELPMHWVRQAPGKGLEWVGSFDPQDAETTYAQRFQGRVAMTEDTSTDTAYMELSSLRSEDTAVYYCATPAPTIVGVVIYALHIWGQGTMVTVSS
VL: EIVLTQSPGTLSLSPGERATLSCRASQRVSDNSLAWYQQKPGQAPSLLIFAASIRAPGIPDRISGTGSGTDFTLTINRLEPEDFVVYFCLQYTTSPPLTFGGGTKLEIK
binding result (人冠状病毒OC43 N蛋白): no binding
binding result (MERS病毒N蛋白): no binding
binding result (SARS病毒N蛋白): binds
binding result (人冠状病毒HKU1 N蛋白): no binding
Kd (新型冠状病毒(SARS-CoV-2)N蛋白): 1.94 nM
